Test results published in article PMC4926278.

Assays:
[1] = molecular target: Vpu-S52/56D, full-length Vpu (NL4-3) double mutant (HIV-1 strain NL4-3); assay: SEC; time-dependent SEC from a stock solution over up to 12 days in 50 mM NaCl buffer; peak area P1/(P1+P2) over time fitted with a logistic growth function (dimer to higher oligomer)
[2] = molecular target: Vpu-S52/56N, full-length Vpu (NL4-3) double mutant (HIV-1 strain NL4-3); assay: as above

| Substance | growth rate c of the higher oligomer (logistic fit of P1/(P1+P2) over time) [1] | growth rate c of the higher oligomer (logistic fit of P1/(P1+P2) over time) [2] |
| --- | --- | --- |
| Vpu-S52/56D, full-length Vpu (NL4-3) double mutant (natural protein) | 0.56 day^−1 | – |
| Vpu-S52/56N, full-length Vpu (NL4-3) double mutant (natural protein) | – | 1.05 day^−1 |
